In article doi:10.1101/2020.04.28.064113 (bioRxiv, 2020):

Target: Ubiquitin (wild-type), 15N isotopically labelled (UniProt P0CG47 1-76)
Experiment: NMR titration

B1: stapled Cys-Ubq3-Cys peptide (stapled xenonucleus) (peptide)
peptide: CMQIFVKTLTGKTITLEVC
modifications: disulphide bridge between the two terminal cysteines
B1: binds.
